In assay [1] the target is HA-SUMO3 (UniProt P55854). The assay can be described thus: co-IP; 293T cells cotransfected with GFP-INwt/mut and HA-SUMO2 or HA-SUMO3, 40 h; lysis buffer 20 mM Tris-HCl pH 7.5, 100 mM NaCl, 0.5% NP-40, 0.5 mM EDTA; immunoprecipitated with anti-HA, blotted with anti-GFP; densitometry with GFP-INwt set as 100%.
For assay [2], the target named is HA-SUMO3 (UniProt P55854). The assay can be described thus: co-IP (IP anti-HA, WB anti-GFP) with densitometric analysis. The following applies: 293 T cells cotransfected with GFP-INwt/mut and HA-SUMO3; parent: est. 1.0; read off a plot.
Assay [3] has as its target GFP-IN 3VI mutant (V72A/I73A, I200A/V201A, V259A/V260A) (HIV-1). The assay can be described thus: co-IP.
Assay [4] addresses M1 + M2 and M1 + M3 mutants. The assay can be described thus: co-IP; 293T cells cotransfected with GFP-INwt/mut and T7-LEDGF/p75, T7-Ku70 or HA-Ubc9; immunoprecipitated with rabbit anti-GFP, blotted with anti-T7 or anti-HA.
Another assay has as its target M2 and M3. Described as above.

Here are results for seven substances from article PMC6446281.

Sequence of T7-Ku70 (P12956 whole entry): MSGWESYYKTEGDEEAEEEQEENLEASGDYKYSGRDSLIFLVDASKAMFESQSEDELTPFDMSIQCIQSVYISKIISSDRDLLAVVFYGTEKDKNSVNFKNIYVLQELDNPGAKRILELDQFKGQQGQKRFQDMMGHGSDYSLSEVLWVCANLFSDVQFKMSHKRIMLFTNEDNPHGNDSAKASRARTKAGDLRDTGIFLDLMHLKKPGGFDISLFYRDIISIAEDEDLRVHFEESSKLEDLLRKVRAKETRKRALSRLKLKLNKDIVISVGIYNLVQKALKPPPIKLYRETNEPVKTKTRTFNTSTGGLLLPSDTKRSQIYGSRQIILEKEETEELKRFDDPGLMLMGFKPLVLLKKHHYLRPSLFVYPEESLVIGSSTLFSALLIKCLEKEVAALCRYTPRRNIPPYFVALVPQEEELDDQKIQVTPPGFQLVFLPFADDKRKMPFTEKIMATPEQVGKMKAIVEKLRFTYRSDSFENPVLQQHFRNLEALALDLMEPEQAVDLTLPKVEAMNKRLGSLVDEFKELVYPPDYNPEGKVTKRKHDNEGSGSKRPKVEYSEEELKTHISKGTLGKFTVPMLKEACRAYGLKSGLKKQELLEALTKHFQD

GFP-IN mutant M2 (I200A/V201A) (enzyme): in the assay with HA-SUMO3 [1], the percent reduction in binding against GFP-INwt stood at 80%.
Still for that read-out and setting: in the case of GFP-IN mutant M3 (V259A/V260A) (enzyme) it was 67%.
Take “GFP-IN wild type (HIV-1 integrase, codon-optimized, fused to AcGFP) K46R; K136R; K244R”: in the assay with HA-SUMO3 [2], the ratio to parent came to 1.1.
The same measure, in the same setting: under “GFP-IN wild type (HIV-1 integrase, codon-optimized, fused to AcGFP) V72A; I73A” stands 1.2; under “GFP-IN wild type (HIV-1 integrase, codon-optimized, fused to AcGFP) V72A; I73A; I200A; V201A; V259A; V260A”, 0.01.
In the case of “T7-Ku70 (from UniProt P12956 1-609) (natural protein)”, in assay [3], the fold change in binding against INwt was 2 fold.
Turning to “T7-LEDGF/p75 (lens-epithelium-derived growth factor) (from UniProt O75475 1-530) (natural protein)”, the percent of the binding of INwt in assay [4] is 10 to 20%; with M2 and M3, 40 to 60%; in assay [3] it was less than 10%.
